Experimental data: the supplement of paper PMC10567573

B1: PLAGL1 (parent)
chain: LELGSTEVLLDHLKAHAEEKPPSG
B2: TFE3 (parent)
chain: FPSDHLGDLGDPFHLGLEDILMEE

Variants of: B1
Assay: protein stability index of a GFP-peptide fusion (GPS, HEK-293T) (PSI 1-6); higher = more stable
Details: c terminus: a fixed tail appended
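Further: lentivirally expressed fusions sorted by FACS into six bins by GFP to DsRed ratio, PSI derived from sequencing read proportions per bin multiplied by bin number.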

Protein stability index: each site, then its substitutions
E7: K 3.85, V 3.82, M 3.54, D 5.27, L 3.41, W 3.04, T 4.24, H 4.39, A 4.78, C 4.27, P 5.07, F 3.86, I 3.69, Y 3.77, S 4.81, N 4.67, R 4.81, Q 4.89, G 4.89
L1: N 5.35, V 4.91, W 4.28, M 4.59, E 5.02, G 4.44, R 5.29, P 5.23, S 4.98, A 5.43, H 5.36, C 4.61, Q 4.99, F 4.48, I 3.55, T 4.91, D 5.24, Y 4.38, K 5.53
L9: A 5.08, C 5.04
L3: D 5.79, W 4.49, Q 5.55, M 4.09, R 5.54, E 5.8, S 5.72, H 5.4, F 4.33, K 5.19, G 5.74, C 5.21, I 4.74, T 5.18, V 4.9, P 5.88, Y 5.45, N 5.67, A 5.17
T6: I 3.4, N 4.76, S 4.71, Q 5.22, K 5.38, F 3.62, E 5.49, R 4.57, C 4.38, A 3.58, Y 3.76, H 5.42, L 2.84, V 4.24, P 4.25, W 2.89, G 4.75, M 3.74
S5: K 3.85, F 3.09, Y 3.33, A 3.22, N 5.08, E 3.8, R 3.5, G 4.56, P 4.79, V 3.79, M 2.3, L 2.53, I 4.15, D 4.84, C 4.51, W 2.97, Q 2.92, H 4.84, T 4.44
E2: L 2.27, D 4.03, K 4.23, I 3.18, C 3.84, A 3.53, W 2, V 2.49, N 4.69, T 4.16, H 4.03, M 2.81, Q 4.19, P 4.67, G 4.81, R 3.4, S 3.37, F 2.15, Y 2.34
V8: I 3.91, Q 4.75, W 3.79, H 4.55, K 4.51, L 3.21, F 3.85, P 4.84, N 4.85, R 4.96, Y 4.62, C 4.41, T 5, S 4.87, E 5.29, A 4.64, D 5.01, M 3.54
G4: I 2.58, N 4.54, E 3.85, S 4.14, V 3.28, T 3.95, A 2.89, D 5.28, W 2.2, P 4.77, M 2.25, Y 2.19, F 2.59, C 3.54, H 3.83, R 3.94, Q 3.68, K 4.3, L 2.77

Variants of: B2
Assay: as above
Details: c terminus: a fixed tail appended

Protein stability index, by site and new letter:
E23: T 3.24, W 2.56, V 3.85, Q 3.26, L 2.44, S 2.81, K 3.34, H 2.86, F 2.42, R 2.95, D 2.86, C 2.03, A 2.45, N 2.65, M 2.33, I 2.62, P 2.76, G 2.47, Y 2.3
E24: L 1.97, C 2.96, A 2.64, T 2.95, H 2.75, M 2.62, I 1.97, W 1.8, F 1.92, Y 2.35, K 2.59, R 2.87, Q 2.96, S 2.91, G 2.91, V 1.59, N 3.49, D 3.54, P 2.77
L21: P 4.18, V 3.4, K 4.06, D 4.26, G 3.88, S 3.69, E 4.28, N 3.85, H 4.08, C 3.42, F 3.28, M 3.38, A 4.03, I 3.32, T 3.93, R 3.78, Y 3.31, W 3.14, Q 3.94
I20: D 4.26, E 4.2, P 3.77, N 4.29, T 3.97, K 4.05, C 3.84, W 3.5, M 3.63, F 3.82, L 3.91, S 3.7, H 3.92, G 4.16, Q 4.37, A 3.28, Y 3.88, R 3.5, V 3.48
D19: A 2.1, F 2.09, L 2.03, G 3.46, C 2.91, W 2.16, N 3.06, Q 2.83, P 3.31, V 1.97, R 2.77, I 2.92, K 3.29, T 2.58, M 2.28, E 3.2, S 2.69, Y 1.91, H 3.29
G16: Y 2.68, H 3.25, R 2.7, W 1.85, N 3.34, S 3.26, D 3.59, C 2.7, I 2.31, F 2.16, Q 3.6, E 3.96, L 2.4, T 3.1, P 3.35, M 3.51, K 3.3, V 2.67, A 3.58
L17: V 3.09, T 3.47, F 3.1, R 3.55, I 3.22, Q 3.55, N 4.21, H 4.29, K 3.53, Y 3.46, D 4.5, M 2.91, S 3.86, W 3.19, E 4.11, G 3.7, A 3.92, C 3.5, P 3.67
M22: V 3.08, N 4.04, Q 3.75, A 3.31, T 3.72, P 3.71, G 3.64, S 3.87, I 3.35, F 3.14, L 3.24, R 3.33, K 3.98, Y 3.13, H 3.7, D 4.26, C 3.53, E 4.79, W 3.16
L15: R 3.61, M 3.35, P 3.7, T 3.85, Q 3.87, Y 3.56, S 3.67, K 3.1, N 3.77, V 3.24, W 3.49
E18: Q 2.89, V 3.22, W 2.65, F 1.91, K 2.85, G 2.86, Y 2.1, N 3.12, T 2.72, I 2.01, H 2.72, D 3.87, C 2.18, A 2.7, S 3.51, M 2.62, P 3.07, R 2.28, L 1.98
